Measurements as given in PMC9723941.

Target: GFPuv (heat-aggregated)
Assay: BLI; aggregated GFPuv as the sensor-bound substrate; Ssa1 and Ydj1 in solution; As(III) at the aggregation step (Fig. S3A)

Ydj1, sequence (P25491 whole entry): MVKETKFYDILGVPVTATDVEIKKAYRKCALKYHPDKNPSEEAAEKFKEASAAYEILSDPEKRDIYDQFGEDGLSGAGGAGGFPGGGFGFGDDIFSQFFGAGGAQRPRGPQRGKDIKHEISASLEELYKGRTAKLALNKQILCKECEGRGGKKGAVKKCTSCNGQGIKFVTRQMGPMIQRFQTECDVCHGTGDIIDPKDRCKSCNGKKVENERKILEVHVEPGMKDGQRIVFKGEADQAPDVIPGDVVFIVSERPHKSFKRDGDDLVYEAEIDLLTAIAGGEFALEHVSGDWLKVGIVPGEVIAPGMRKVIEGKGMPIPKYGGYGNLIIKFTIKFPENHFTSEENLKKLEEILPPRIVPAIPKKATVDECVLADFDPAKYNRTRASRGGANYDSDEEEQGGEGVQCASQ
Ssa1, sequence (P10591 whole entry): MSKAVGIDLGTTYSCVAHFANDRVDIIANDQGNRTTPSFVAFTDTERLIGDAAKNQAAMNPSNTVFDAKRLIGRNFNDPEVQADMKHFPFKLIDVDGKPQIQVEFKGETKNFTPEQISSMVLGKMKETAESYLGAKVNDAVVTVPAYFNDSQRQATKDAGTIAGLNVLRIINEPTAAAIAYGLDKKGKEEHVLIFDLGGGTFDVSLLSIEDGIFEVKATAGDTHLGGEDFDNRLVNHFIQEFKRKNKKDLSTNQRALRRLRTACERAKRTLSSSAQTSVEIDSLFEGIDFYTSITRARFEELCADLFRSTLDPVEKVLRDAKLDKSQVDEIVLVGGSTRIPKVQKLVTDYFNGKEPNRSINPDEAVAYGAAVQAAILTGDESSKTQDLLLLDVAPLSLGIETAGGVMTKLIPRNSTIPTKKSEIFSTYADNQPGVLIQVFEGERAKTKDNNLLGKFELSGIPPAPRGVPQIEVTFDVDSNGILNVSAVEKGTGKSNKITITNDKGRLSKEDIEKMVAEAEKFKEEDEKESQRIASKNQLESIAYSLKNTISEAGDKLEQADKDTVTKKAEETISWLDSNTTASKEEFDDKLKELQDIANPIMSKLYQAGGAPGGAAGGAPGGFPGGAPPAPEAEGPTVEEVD

reduction of binding to aggregates generated in the presence of 1 mM As(III), against aggregates generated without As(III) | Substance
30% | Ssa1 (from UniProt P10591 1-642) (natural protein)
30% | Ydj1 (from UniProt P25491 1-409) (natural protein)
